Source: patent publication US10800847

Columns and labels:
[1] = molecular target: HLA-A*0301 (A3) on single antigen beads (human) (UniProt P04439); experiment: Luminex, iBead MFI against regular bead MFI, 1:8
[2] = molecular target: Albumin on negative control beads (serum albumin, HSA/BSA) (human or bovine); experiment: Luminex single antigen beads, regular beads (#7), 1:8
[3] = molecular target: HLA-B*4006 (B61) single antigen on Luminex beads (human); experiment: Luminex single antigen, iBead vs regular bead, IVIg 1:8
[4] = molecular target: HLA-B*4601 (B46) single antigen on Luminex beads (human); experiment: as above
[5] = molecular target: HLA-B*2708 (B27) single antigen on Luminex beads (human); experiment: as above
[6] = molecular target: HLA-B*4201 (B42) single antigen on Luminex beads (human); experiment: as above
[7] = molecular target: HLA-B*2705 (B27) single antigen on Luminex beads (human); experiment: as above
[8] = molecular target: HLA-B*3501 (B35) single antigen on Luminex beads (human); experiment: as above
[9] = molecular target: HLA-B*3701 (B37) single antigen on Luminex beads (human); experiment: as above
[10] = molecular target: HLA-B*4402 (B44) single antigen on Luminex beads (human); experiment: as above
[11] = molecular target: HLA-B*4701 (B47) single antigen on Luminex beads (human); experiment: as above
[12] = molecular target: HLA-B*4501 (B45) single antigen on Luminex beads (human); experiment: as above
[13] = molecular target: HLA-B*4006 (B61) single antigen on Luminex beads (human); experiment: Luminex single antigen, iBeads (#6), IVIg 1:8
[14] = molecular target: HLA-B*2708 (B27) single antigen on Luminex beads (human); experiment: Luminex single antigen, iBeads (#6), IVIg 1:8
[15] = molecular target: HLA-B*4201 (B42) single antigen on Luminex beads (human); experiment: Luminex single antigen, iBeads (#6), IVIg 1:8
[16] = molecular target: HLA-B*2705 (B27) single antigen on Luminex beads (human); experiment: Luminex single antigen, iBeads (#6), IVIg 1:8
[17] = molecular target: HLA-B*4001 (B60) single antigen on Luminex beads (human); experiment: Luminex single antigen, iBeads (#6), IVIg 1:8
[18] = molecular target: HLA-B*3501 (B35) single antigen on Luminex beads (human); experiment: Luminex single antigen, iBeads (#6), IVIg 1:8
[19] = molecular target: HLA-B*3701 (B37) single antigen on Luminex beads (human); experiment: Luminex single antigen, iBeads (#6), IVIg 1:8
[20] = molecular target: HLA-B*4402 (B44) single antigen on Luminex beads (human); experiment: Luminex single antigen, iBeads (#6), IVIg 1:8
[21] = molecular target: HLA-B*4101 (B41) single antigen on Luminex beads (human); experiment: Luminex single antigen, iBeads (#6), IVIg 1:8
[22] = molecular target: HLA-B*3901 (B39) single antigen on Luminex beads (human); experiment: Luminex single antigen, iBeads (#6), IVIg 1:8
[23] = molecular target: HLA-B*4002 (B61) single antigen on Luminex beads (human); experiment: Luminex single antigen, iBeads (#6), IVIg 1:8
[24] = molecular target: HLA-B*3801 (B38) single antigen on Luminex beads (human); experiment: Luminex single antigen, iBeads (#6), IVIg 1:8
[25] = molecular target: HLA-B*4701 (B47) single antigen on Luminex beads (human); experiment: Luminex single antigen, iBeads (#6), IVIg 1:8
[26] = molecular target: HLA-B*4501 (B45) single antigen on Luminex beads (human); experiment: Luminex single antigen, iBeads (#6), IVIg 1:8
[27] = molecular target: HLA-B*4403 (B44) single antigen on Luminex beads (human); experiment: Luminex single antigen, iBeads (#6), IVIg 1:8
[28] = molecular target: HLA-B*4006 (B61) single antigen on Luminex beads (human); experiment: Luminex single antigen, regular beads (#7), IVIg 1:8
[29] = molecular target: HLA-B*4601 (B46) single antigen on Luminex beads (human); experiment: as above
[30] = molecular target: HLA-B*4201 (B42) single antigen on Luminex beads (human); experiment: as above
[31] = molecular target: HLA-B*2705 (B27) single antigen on Luminex beads (human); experiment: as above
[32] = molecular target: HLA-B*4001 (B60) single antigen on Luminex beads (human); experiment: as above
[33] = molecular target: HLA-B*3501 (B35) single antigen on Luminex beads (human); experiment: as above
[34] = molecular target: HLA-B*3701 (B37) single antigen on Luminex beads (human); experiment: as above
[35] = molecular target: HLA-B*3901 (B39) single antigen on Luminex beads (human); experiment: as above
[36] = molecular target: HLA-B*3801 (B38) single antigen on Luminex beads (human); experiment: as above
[37] = molecular target: HLA-B*4701 (B47) single antigen on Luminex beads (human); experiment: as above
[38] = molecular target: HLA-B*4501 (B45) single antigen on Luminex beads (human); experiment: as above
[39] = molecular target: HLA-B*4403 (B44) single antigen on Luminex beads (human); experiment: as above
[40] = molecular target: Albumin on negative control beads (serum albumin, HSA/BSA) (human or bovine); experiment: Luminex single antigen beads, iBeads (#6), 1:8
[41] = molecular target: HLA-A*0301 (A3) on single antigen beads (human) (UniProt P04439); experiment: Luminex single antigen beads, iBeads (#6), 1:8

Substance: GamaSTAN S/D (IVIg, Talecris Biotherapeutics, Inc., USA) (antibody)
- Difference % (iBead against regular bead) [1]: -100%
- MFI [2]: 3790 MFI
- Difference % (iBead against regular bead MFI) [3]: -32%
- Difference % (iBead against regular bead MFI) [4]: -20%
- Difference % (iBead against regular bead MFI) [5]: 32%
- Difference % (iBead against regular bead MFI) [6]: -52%
- Difference % (iBead against regular bead MFI) [7]: -21%
- Difference % (iBead against regular bead MFI) [8]: -4%
- Difference % (iBead against regular bead MFI) [9]: -88%
- Difference % (iBead against regular bead MFI) [10]: -22%
- Difference % (iBead against regular bead MFI) [11]: 81%
- Difference % (iBead against regular bead MFI) [12]: 47%
- MFI [13]: 2370 MFI
- MFI [14]: 1410 MFI
- MFI [15]: 286 MFI
- MFI [16]: 1080 MFI
- MFI [17]: 2290 MFI
- MFI [18]: 653 MFI
- MFI [19]: 392 MFI
- MFI [20]: 3380 MFI
- MFI [21]: 870 MFI
- MFI [22]: 0 MFI
- MFI [23]: 1190 MFI
- MFI [24]: 0 MFI
- MFI [25]: 3210 MFI
- MFI [26]: 5400 MFI
- MFI [27]: 2900 MFI
- MFI [28]: 3470 MFI
- MFI [29]: 1830 MFI
- MFI [30]: 598 MFI
- MFI [31]: 1370 MFI
- MFI [32]: 1720 MFI
- MFI [33]: 680 MFI
- MFI [34]: 3240 MFI
- MFI [35]: 0 MFI
- MFI [36]: 619 MFI
- MFI [37]: 1770 MFI
- MFI [38]: 3670 MFI
- MFI [39]: 3390 MFI
- MFI [40]: 5030 MFI
- MFI [41]: 0 MFI
